Data on 2 substances can be found in patent US20260069679A1.

In assay [1] the target is SS-L2-Aferr. The assay is described as follows: BLI, 1:1 fit.
For assay [2], the target named is SS[change]. Nature of the assay: BLI, 1:1 fit.
For assay [3], the target named is MERS SS antigen (MERS-CoV EMC/2012) (UniProt K9N5Q8).
For assay [4] the target is unchanged. The source holds these as a separate data set.
Assay [5] shares this target. The assay is described as follows: BLI, 1:1 fit.
Assay [6] addresses MERS [change]\u0394RBD antigen (MERS-CoV EMC/2012). The assay is described as follows: BLI, 1:1 fit.

Like-named read-outs stand apart in the source and are kept apart here.

In assay [1], CC40.8 (antibody) returned an equilibrium dissociation constant (Kd) of 312 pM and a kon of 229000 M⁻¹ s⁻¹. For the same substance, in assay [2], the Kd is 1690 pM and the on-rate (kon) was found to be 205000 M⁻¹ s⁻¹.

G4 (antibody) showed a maximum binding in assay [3] of 0.43 nm. Moreover, the dissociation constant Kd in assay [4] was found to be 550 pM; in assay [5] it was 8.1 pM; in assay [6], 6.71 pM; in assay [1], 2.38 pM; in assay [2], 2.79 pM. Further, the on-rate (kon) in assay [5] stood at 52200 M⁻¹ s⁻¹; in assay [6], 67400 M⁻¹ s⁻¹; in assay [1], 205000 M⁻¹ s⁻¹; in assay [2], 175000 M⁻¹ s⁻¹.
